Measured values published in patent publication US20210388087A1 (Chugai, published 2021).

Target: T1, CD3 epsilon homodimer protein (UniProt P07766 23-126)
T1 construct: immobilized on Sensor chip CM4 by amine coupling; also called CD3 (CD3 epsilon)
Test: SPR (Biacore T200), CD3 epsilon homodimer on CM4 chip, one-arm antibody as analyte, 25 C;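 note: homodimer attached to the sensor surface via amine coupling, HBS-EP+ used as running buffer during binding runs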
Procedure: An appropriate amount of CD3 epsilon homodimer protein was immobilized onto Sensor chip CM4 (GE Healthcare Japan Corp.) by the amine coupling method. Then, the antibody having an appropriate concentration was injected thereto as an analyte and allowed to interact with the CD3 epsilon homodimer protein on the sensor chip. Then, the sensor chip was regenerated by the injection of 10 mmol/L glycine-HCl (pH 1.5). The assay was conducted at 25 degrees C., and HBS-EP+(GE Healthcare Japan Corp.) was used as a running buffer. […] Each parameter was calculated using Biacore T200 Evaluation Software (GE Healthcare Japan Corp.).

T1 sequence (P07766 23-126): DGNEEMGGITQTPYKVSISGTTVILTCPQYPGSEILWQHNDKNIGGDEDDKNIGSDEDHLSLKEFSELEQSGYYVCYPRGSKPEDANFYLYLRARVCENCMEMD

ratio of amounts bound (altered form / CE115HA000)	Binder
1.05	CE115HA000 D72E one-arm antibody (antibody, human IgG1, kappa, L234A L235A, N297A, name in Kabat numbering) heavy: QVQLVESGGGVVQPGRSLRLSCAASGFTFSNAWMHWVRQAPGKGLEWVAQIKAKSNNYATYYAESVKGRFTISREDSKNSLYLQMNSLKTEDTAVYYCRYVHYGAYYGVDAWGQGTTVTVSSASTKGPSVFPLAPSSKSTSGGTAALGCLVKDYFPEPVTVSWNSGALTSGVHTFPAVLQSSGLYSLSSVVTVPSSSLGTQTYICNVNHKPSNTKVDKKVEPKSCDKTHTCPPCPAPEAAGGPSVFLFPPKPKDTLMISRTPEVTCVVVDVSHEDPEVKFNWYVDGVEVHNAKTKPREEQYASTYRVVSVLTVLHQDWLNGKEYKCKVSNKALPAPIEKTISKAKGQPREPQVYTLPPSRCELTKNQVSLSCAVKGFYPSDIAVEWESNGQPENNYKTTPPVLDSDGSFFLVSKLTVDKSRWQQGNVFSCSVMHEALHNHYTQKSLSLSPDYKDDDDK EPKSSDKTHTCPPCPAPELLGGPSVFLFPPKPKDTLMISRTPEVTCVVVDVSHEDPEVKFNWYVDGVEVHNAKTKPREEQYNSTYRVVSVLTVLHQDWLNGKEYKCKVSNKALPAPIEKTISKAKGQPREPQVCTLPPSRDELTKNQVSLWCLVKGFYPSDIAVEWESNGQPENNYKTTPPVLDSDGSFFLYSKLTVDKSRWQQGNVFSCSVMHEALHNRYTQKSLSLSP light: DIVMTQSPLSLPVTPGEPASISCRSSQSLVHSNRNTYLHWYQQKPGQAPRLLIYKVSNRFSGVPDRFSGSGSGTDFTLKISRVEAEDVGVYYCGQGTQVPYTFGQGTKLEIKRTVAAPSVFIFPPSDEQLKSGTASVVCLLNNFYPREAKVQWKVDNALQSGNSQESVTEQDSKDSTYSLSSTLTLSKADYEKHKVYACEVTHQGLSSPVTKSFNRGEC
0.83	CE115HA000 D73A one-arm antibody (antibody, human IgG1, kappa, L234A L235A, N297A, name in Kabat numbering) heavy: QVQLVESGGGVVQPGRSLRLSCAASGFTFSNAWMHWVRQAPGKGLEWVAQIKAKSNNYATYYAESVKGRFTISRDASKNSLYLQMNSLKTEDTAVYYCRYVHYGAYYGVDAWGQGTTVTVSSASTKGPSVFPLAPSSKSTSGGTAALGCLVKDYFPEPVTVSWNSGALTSGVHTFPAVLQSSGLYSLSSVVTVPSSSLGTQTYICNVNHKPSNTKVDKKVEPKSCDKTHTCPPCPAPEAAGGPSVFLFPPKPKDTLMISRTPEVTCVVVDVSHEDPEVKFNWYVDGVEVHNAKTKPREEQYASTYRVVSVLTVLHQDWLNGKEYKCKVSNKALPAPIEKTISKAKGQPREPQVYTLPPSRCELTKNQVSLSCAVKGFYPSDIAVEWESNGQPENNYKTTPPVLDSDGSFFLVSKLTVDKSRWQQGNVFSCSVMHEALHNHYTQKSLSLSPDYKDDDDK EPKSSDKTHTCPPCPAPELLGGPSVFLFPPKPKDTLMISRTPEVTCVVVDVSHEDPEVKFNWYVDGVEVHNAKTKPREEQYNSTYRVVSVLTVLHQDWLNGKEYKCKVSNKALPAPIEKTISKAKGQPREPQVCTLPPSRDELTKNQVSLWCLVKGFYPSDIAVEWESNGQPENNYKTTPPVLDSDGSFFLYSKLTVDKSRWQQGNVFSCSVMHEALHNRYTQKSLSLSP light: DIVMTQSPLSLPVTPGEPASISCRSSQSLVHSNRNTYLHWYQQKPGQAPRLLIYKVSNRFSGVPDRFSGSGSGTDFTLKISRVEAEDVGVYYCGQGTQVPYTFGQGTKLEIKRTVAAPSVFIFPPSDEQLKSGTASVVCLLNNFYPREAKVQWKVDNALQSGNSQESVTEQDSKDSTYSLSSTLTLSKADYEKHKVYACEVTHQGLSSPVTKSFNRGEC
1.43	CE115HA000 D72V one-arm antibody (antibody, human IgG1, kappa, L234A L235A, N297A, name in Kabat numbering) heavy: QVQLVESGGGVVQPGRSLRLSCAASGFTFSNAWMHWVRQAPGKGLEWVAQIKAKSNNYATYYAESVKGRFTISRVDSKNSLYLQMNSLKTEDTAVYYCRYVHYGAYYGVDAWGQGTTVTVSSASTKGPSVFPLAPSSKSTSGGTAALGCLVKDYFPEPVTVSWNSGALTSGVHTFPAVLQSSGLYSLSSVVTVPSSSLGTQTYICNVNHKPSNTKVDKKVEPKSCDKTHTCPPCPAPEAAGGPSVFLFPPKPKDTLMISRTPEVTCVVVDVSHEDPEVKFNWYVDGVEVHNAKTKPREEQYASTYRVVSVLTVLHQDWLNGKEYKCKVSNKALPAPIEKTISKAKGQPREPQVYTLPPSRCELTKNQVSLSCAVKGFYPSDIAVEWESNGQPENNYKTTPPVLDSDGSFFLVSKLTVDKSRWQQGNVFSCSVMHEALHNHYTQKSLSLSPDYKDDDDK EPKSSDKTHTCPPCPAPELLGGPSVFLFPPKPKDTLMISRTPEVTCVVVDVSHEDPEVKFNWYVDGVEVHNAKTKPREEQYNSTYRVVSVLTVLHQDWLNGKEYKCKVSNKALPAPIEKTISKAKGQPREPQVCTLPPSRDELTKNQVSLWCLVKGFYPSDIAVEWESNGQPENNYKTTPPVLDSDGSFFLYSKLTVDKSRWQQGNVFSCSVMHEALHNRYTQKSLSLSP light: DIVMTQSPLSLPVTPGEPASISCRSSQSLVHSNRNTYLHWYQQKPGQAPRLLIYKVSNRFSGVPDRFSGSGSGTDFTLKISRVEAEDVGVYYCGQGTQVPYTFGQGTKLEIKRTVAAPSVFIFPPSDEQLKSGTASVVCLLNNFYPREAKVQWKVDNALQSGNSQESVTEQDSKDSTYSLSSTLTLSKADYEKHKVYACEVTHQGLSSPVTKSFNRGEC
0.73	CE115HA000 D73E one-arm antibody (antibody, human IgG1, kappa, L234A L235A, N297A, name in Kabat numbering) heavy: QVQLVESGGGVVQPGRSLRLSCAASGFTFSNAWMHWVRQAPGKGLEWVAQIKAKSNNYATYYAESVKGRFTISRDESKNSLYLQMNSLKTEDTAVYYCRYVHYGAYYGVDAWGQGTTVTVSSASTKGPSVFPLAPSSKSTSGGTAALGCLVKDYFPEPVTVSWNSGALTSGVHTFPAVLQSSGLYSLSSVVTVPSSSLGTQTYICNVNHKPSNTKVDKKVEPKSCDKTHTCPPCPAPEAAGGPSVFLFPPKPKDTLMISRTPEVTCVVVDVSHEDPEVKFNWYVDGVEVHNAKTKPREEQYASTYRVVSVLTVLHQDWLNGKEYKCKVSNKALPAPIEKTISKAKGQPREPQVYTLPPSRCELTKNQVSLSCAVKGFYPSDIAVEWESNGQPENNYKTTPPVLDSDGSFFLVSKLTVDKSRWQQGNVFSCSVMHEALHNHYTQKSLSLSPDYKDDDDK EPKSSDKTHTCPPCPAPELLGGPSVFLFPPKPKDTLMISRTPEVTCVVVDVSHEDPEVKFNWYVDGVEVHNAKTKPREEQYNSTYRVVSVLTVLHQDWLNGKEYKCKVSNKALPAPIEKTISKAKGQPREPQVCTLPPSRDELTKNQVSLWCLVKGFYPSDIAVEWESNGQPENNYKTTPPVLDSDGSFFLYSKLTVDKSRWQQGNVFSCSVMHEALHNRYTQKSLSLSP light: DIVMTQSPLSLPVTPGEPASISCRSSQSLVHSNRNTYLHWYQQKPGQAPRLLIYKVSNRFSGVPDRFSGSGSGTDFTLKISRVEAEDVGVYYCGQGTQVPYTFGQGTKLEIKRTVAAPSVFIFPPSDEQLKSGTASVVCLLNNFYPREAKVQWKVDNALQSGNSQESVTEQDSKDSTYSLSSTLTLSKADYEKHKVYACEVTHQGLSSPVTKSFNRGEC
